Target: His6-GyrB subunit of M. tuberculosis DNA gyrase (M. tuberculosis H37Rv) (UniProt P9WG45)
Experiment: SPR; BIAcore T200; […], association 180 s, dissociation 600 s; HBS-N

B1: MParE2 without the His6-tag (natural protein)
chain: MTRRLRVHNGVEDDLFEAFSYYADAAPDQIDRLYNLFVDAVTKRIPQAPNAFAPLFKHYRHIYLRPFRYYVAYRTTDEAIDILAVRHGMENPNAVEAEISGRTFE
Question: Which Kd does the source give for B1 here?
Answer: 4.75 µM

— publication PMC4906023
